Data from US20150239954.

Target: T1, E(Edans)-AAHisAAK-(Dabsyl)-NH2 (not fully specified)
T1 chain: AAHAAK

B1: aspergillopepsin II (An01g00530) (protein)
chain: EDYSSNWAGAVLIGDGYTKVTGEFTVPSVSAGSSSSSGYGGGYGYYKNKRQSEEYCASAWVGIDGDTCETAILQTGVDFCYEDGQTSYDAWYEWYPDYAYDFNDITISEGDTIKVTVEATSKSSGSATVENLTTGQSVTHTFSGNVEGDLCETNAEWIVEDFESGDSLVAFADFGSVTFTNAEATSDGSTVGPSDATVMDIEQDGTVLTETSVSGDSVTVTYV
With B1 the “enzyme activity in relative fluorescent units (rfu) per minute per mg of protein; cleavage of FRET peptide substrates at pH 4” value was “yields the highest rfu value for aspergillopepsin II”.
